In publication PMC10861901 one finds Kd data, which are given here for one substance.

The target of this test is A. fulgidus DsrC-trisulfide (Archaeoglobus fulgidus). Description: SPR.

One may read the Kd as the free concentration of one partner at which half of the binding sites on the other are occupied at equilibrium, for simple one-to-one binding. The low end stands for a tighter complex, the high end for a looser complex. “DsrMKJOP complex of Archaeoglobus fulgidus (from UniProt O29749 1-332; O29748 1-555; O29747 1-142; O29751 27-269; O29750 1-395)” yielded a Kd of 200 nM. This counts as sub-micromolar.
